The test system of this series is COc1cccc2c1C(=O)c1c(O)c3c(c(O)c1C2=O)C[C@@](O)(C(C)=O)C[C@@H]3O[C@H]1C[C@H](N)[C@H](O)[C@H](C)O1. Description: cells, lysate or membranes named. To be noted: other: Lineweaver-Burk plots; rat canalicular vesicles; pH 7.4.

Results on one substance are retold here after publication PMC2362229.

Chain of Mdr1b P-gp (Rattus norvegicus) (chain, as listed by the source): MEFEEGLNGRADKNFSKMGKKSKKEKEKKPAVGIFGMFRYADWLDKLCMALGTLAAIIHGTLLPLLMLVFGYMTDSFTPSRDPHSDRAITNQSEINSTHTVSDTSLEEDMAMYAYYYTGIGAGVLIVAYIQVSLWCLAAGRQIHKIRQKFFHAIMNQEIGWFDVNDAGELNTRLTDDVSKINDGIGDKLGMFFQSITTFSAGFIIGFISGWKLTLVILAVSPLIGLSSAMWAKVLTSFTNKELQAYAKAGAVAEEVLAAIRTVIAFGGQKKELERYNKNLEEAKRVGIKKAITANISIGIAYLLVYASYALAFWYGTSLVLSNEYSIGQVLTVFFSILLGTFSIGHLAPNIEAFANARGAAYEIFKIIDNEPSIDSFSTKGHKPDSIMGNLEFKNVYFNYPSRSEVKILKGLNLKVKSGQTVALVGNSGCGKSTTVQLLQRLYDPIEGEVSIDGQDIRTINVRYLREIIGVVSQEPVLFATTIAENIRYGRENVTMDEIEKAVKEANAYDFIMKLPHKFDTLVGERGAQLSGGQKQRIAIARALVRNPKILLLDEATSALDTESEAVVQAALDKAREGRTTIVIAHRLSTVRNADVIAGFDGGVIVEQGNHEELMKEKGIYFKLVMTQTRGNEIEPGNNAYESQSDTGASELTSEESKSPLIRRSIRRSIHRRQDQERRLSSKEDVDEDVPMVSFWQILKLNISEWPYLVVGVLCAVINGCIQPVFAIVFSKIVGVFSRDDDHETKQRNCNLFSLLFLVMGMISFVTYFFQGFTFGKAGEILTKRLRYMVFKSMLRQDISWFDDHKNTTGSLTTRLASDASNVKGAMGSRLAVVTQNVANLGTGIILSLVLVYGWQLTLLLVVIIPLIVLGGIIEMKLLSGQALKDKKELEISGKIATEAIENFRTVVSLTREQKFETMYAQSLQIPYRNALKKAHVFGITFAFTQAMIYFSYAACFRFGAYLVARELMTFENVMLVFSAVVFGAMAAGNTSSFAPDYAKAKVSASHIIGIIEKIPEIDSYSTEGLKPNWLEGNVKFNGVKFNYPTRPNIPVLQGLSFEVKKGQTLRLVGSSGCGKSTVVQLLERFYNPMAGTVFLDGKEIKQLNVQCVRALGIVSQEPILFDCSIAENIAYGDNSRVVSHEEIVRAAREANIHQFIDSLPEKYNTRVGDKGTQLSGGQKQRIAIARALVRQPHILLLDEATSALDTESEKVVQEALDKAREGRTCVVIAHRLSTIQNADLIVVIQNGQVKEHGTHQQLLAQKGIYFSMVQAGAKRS

For orientation: Km means the substrate concentration at which the rate is half of its maximum. Take Mdr1b P-gp (Rattus norvegicus): the Km came to 33 µM.
